B1: Homeobox-containing protein 1 (Homo sapiens), Q6NT76 (parent)
chain: MLSSFPVVLLETMSHYTDEPRFTIEQIDLLQRLRRTGMTKHEILHALETLDRLDQEHSDKFGRRSSYGGSSYGNSTNNVPASSSTATASTQTQHSGMSPSPSNSYDTSPQPCTTNQNGRENNERLSTSNGKMSPTRYHANSMGQRSYSFEASEEDLDVDDKVEELMRRDSSVIKEEIKAFLANRRISQAVVAQVTGISQSRISHWLLQQGSDLSEQKKRAFYRWYQLEKTNPGATLSMRPAPIPIEDPEWRQTPPPVSATSGTFRLRRGSRFTWRKECLAVMESYFNENQYPDEAKREEIANACNAVIQKPGKKLSDLERVTSLKVYNWFANRRKEIKRRANIEAAILESHGIDVQSPGGHSNSDDVDGNDYSEQDDSTSHSDHQDPISLAVEMAAVNHTILALARQGANEIKTEALDDD
partner: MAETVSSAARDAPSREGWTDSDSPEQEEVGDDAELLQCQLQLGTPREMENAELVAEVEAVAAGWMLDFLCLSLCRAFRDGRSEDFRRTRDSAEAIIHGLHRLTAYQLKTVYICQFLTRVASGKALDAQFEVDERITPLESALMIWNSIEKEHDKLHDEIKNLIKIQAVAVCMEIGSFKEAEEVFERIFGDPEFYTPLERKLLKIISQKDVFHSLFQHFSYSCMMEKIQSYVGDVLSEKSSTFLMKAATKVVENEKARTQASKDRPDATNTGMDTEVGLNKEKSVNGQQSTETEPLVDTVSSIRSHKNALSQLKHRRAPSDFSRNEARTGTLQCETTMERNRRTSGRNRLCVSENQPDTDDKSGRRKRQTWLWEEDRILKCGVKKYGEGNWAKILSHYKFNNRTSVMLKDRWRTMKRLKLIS

Variants of: B1
Conditions: with terf1_mouse Terf1, P70371

| effect of a mutation on the interaction | Variant |
| --- | --- |
| disrupting interaction | R339A |

From IntAct's records for PubMed 23685356
